Where two headings read alike, the source gives them in different places. Blank lines part the entries; values can stand above or below the binder they belong to.
Legend:
[1] = molecular target: T1, human CD33-His (extracellular domain Asp 18-His 259) (human, UniProt P20138 18-259); test: competitive ELISA vs coated S006-NB146-16 3ug/mL; soluble 25ug/ml
T1 construct: range 18-259; bought protein; also called hCD33-his; human CD33 protein; not shown: His tag

[2] = molecular target: T1, human CD33-His (extracellular domain …); test: competitive ELISA vs coated S006-NB146-132 2ug/mL; soluble 25ug/ml
Procedure: (§1) VHH antibodies and control antibodies with known epitopes were subjected to epitope classification with competitive ELISA. ELISA plates were coated with 2 μg/mL antibodies according to the method in Example 5.1; the human CD33-his protein was subjected to a gradient dilution from 30 μg/mL, and EC80 values (Tables 26-27) were calculated. ELISA plates were coated with 2 μg/mL antibodies; after 25 µg/mL of antibodies to be tested were added, a human CD33-his protein having an EC80 concentration corresponding to each of the antibodies to be tested was then added for incubation for 2 h. The plates were washed 5 times with PBS, then HRP-labeled anti-His antibodies (purchased from GenScript, Cat. No. A00612) were added for incubation for 1 h, and the plates were washed 5 times. A TMB substrate was added at 50 μL/well and incubated at room temperature for 10 min, then a stop solution (1.0 M HCl) was added at 50 μL/well. OD_{450 nm} values were read using an ELISA plate reader (Insight, purchased from PerkinElmer), and the competition rate between the antibodies was calculated according to the OD_{450 nm} values using a formula. The results are shown in FIGS. 12A-12B, the higher the value of the competition rate, the closer the epitopes to which two antibodies bind.

[3] = molecular target: T1, human CD33-His (extracellular domain …); test: competitive ELISA vs coated S006-NB146-17 2ug/mL; soluble 25ug/ml
Procedure: as §1

human CD33-C2-his = molecular target: T2, human CD33-C2-his (human, UniProt P20138 136-260); test: ELISA on coated human CD33-C2-his
T2 construct: expressed in HEK293E; also called hCD33-C2-his; human CD33 protein C2-domain; not shown: His tag
T2 sequence (P20138 other isoform, or with tags, fused parts or gaps limits assumed): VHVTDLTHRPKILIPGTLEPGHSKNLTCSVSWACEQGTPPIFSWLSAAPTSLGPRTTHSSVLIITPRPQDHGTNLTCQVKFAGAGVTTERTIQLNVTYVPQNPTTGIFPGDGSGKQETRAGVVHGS

[4] = molecular target: T1, human CD33-His (extracellular domain …); test: ELISA, antigen coated
Procedure: (§2) In order to assay the binding activity of VHH-Fc to human CD33 protein, a human CD33-his protein (purchased from ACROBiosystems, Cat. No. CD3-H5226) was diluted with PBS to make a final concentration of 2 μg/mL, and then added into a 96-well ELISA plate at 100 μL/well. The plate was sealed with a plastic film and incubated at 4° C. overnight, washed twice with PBS the next day, and a blocking solution [PBS+2% (w/w) BSA] was added for blocking at room temperature for 2 h. The blocking solution was discarded, and VHH-Fc antibody or negative control antibody serially diluted from 100 nM was added at 50 μL/well. After incubation at 37° C. for 2 h, the plate was washed 3 times with PBS. A secondary antibody labeled with HRP (horseradish peroxidase) (purchased from Sigma, Cat. No. A0170) was added. After incubation for 1 h at 37° C., the plate was washed 5 times with PBS. A TMB substrate was added at 50 μL/well. After incubation at room temperature for 10 min, a stop solution (1.0 N HCl) was added at 50 μL/well. The OD450 nm values were read on an ELISA plate reader (Multimode Plate Reader, EnSight, purchased from Perkin Elmer). The assay results for the binding of the VHH-Fc to hCD33-his by ELISA are shown in FIGS. 7A and 7B and Tables 11 and 12. […] The IgG control was hIgG1, and the data in the table are OD450 nm values.

[5] = molecular target: T1, human CD33-His (extracellular domain …); test: competitive ELISA vs coated S006-NB146-20 2ug/mL; soluble 25ug/ml
Procedure: as §1

[6] = molecular target: T1, human CD33-His (extracellular domain …); test: ELISA, antigen coated; remark: listed apart in the source
Procedure: as §2

human CD33-his protein [7] = molecular target: T3, human CD33-his protein (human, UniProt P20138 18-259); test: competition ELISA, coated human CD33-his, vs Biotin-C33B904 at EC80; antibody 31.25 nM
T3 construct: range 18-259; bought protein; also called hCD33-his; recombinant human CD33-his; not shown: His tag
T3 sequence (P20138 18-259 limits assumed): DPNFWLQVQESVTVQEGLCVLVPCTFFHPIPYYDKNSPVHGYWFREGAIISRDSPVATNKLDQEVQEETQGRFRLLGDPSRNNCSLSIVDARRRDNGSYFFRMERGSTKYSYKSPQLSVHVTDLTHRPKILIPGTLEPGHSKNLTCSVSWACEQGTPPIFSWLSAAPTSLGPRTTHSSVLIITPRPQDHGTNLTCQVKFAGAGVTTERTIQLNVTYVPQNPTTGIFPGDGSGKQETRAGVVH
Procedure: (§3) ELISA plates were coated with 2 μg/mL human CD33-his protein according to the method in Example 5.1; the Biotin-C331B904 antibody was subjected to a gradient dilution from 15 μg/mL, and EC80 values (0.18 μg/mL) were calculated. ELISA plates were coated with 2 μg/mL human CD33-his protein; starting from 40 μg/mL, the VHH antibodies to be tested were diluted in a 1:2 dilution ratio to obtain seven concentrations and added to the ELISA plates, and then Biotin-C331904 antibodies with the EC80 concentrations were added for incubation for 2 h. The plates were washed 5 times with PBS and then […] (purchased from Sigma, Cat. No. S2438) were added for incubation for 1 h, and the plates were washed 5 times. A TMB substrate was added at 50 μL/well and incubated at room temperature for 10 min, then a stop solution (1.0 M HCl) was added at 50 μL/well. OD_{450 nm} values were read using an ELISA plate reader (Insight, purchased from PerkinElmer). Then, analysis was performed by software (GraphPad Prism8), and data were fitted for curve plotting. The results are shown in FIGS. 13A-13B and Tables 28 and 29.

human CD33-his protein [8] = molecular target: T3, human CD33-his protein; test: competition ELISA, coated human CD33-his, vs Biotin-C33B904 at EC80; antibody 0.49 nM
Procedure: as §3

human CD33-his protein [9] = molecular target: T3, human CD33-his protein; test: competition ELISA, coated human CD33-his, vs Biotin-C33B904 at EC80; antibody 3.91 nM
Procedure: as §3

T1 sequence (P20138 18-259 limits assumed): as above

inhibition rate [1]: 100%
inhibition rate [2]: 98%
inhibition rate [3]: 1%
EC50 (read off the curve) (human CD33-C2-his): ~0.4 nM
OD450 at 0.0001 nM [4]: 0.04 OD450
OD450 at 0.001 nM [4]: 0.05 OD450
OD450 at 0.01 nM [4]: 0.14 OD450
OD450 at 0.1 nM [4]: 0.53 OD450
OD450 at 1 nM [4]: 1.92 OD450
OD450 at 10 nM [4]: 2.55 OD450
OD450 at 100 nM [4]: 2.61 OD450
inhibition rate [5]: 100%
OD450 at 0.0001 nM [6]: 0.04 OD450
OD450 at 0.001 nM [6]: 0.06 OD450
OD450 at 0.01 nM [6]: 0.08 OD450
OD450 at 0.1 nM [6]: 0.28 OD450
OD450 at 1 nM [6]: 1.39 OD450
OD450 at 10 nM [6]: 2.6 OD450
OD450 at 100 nM [6]: 2.96 OD450
B1: C33B904 hIgG1 (antibody, V domains shown)
VH: EVQLVESGGGLVQPGRSLRLSCAASGFTFDDYAMHWVRQAPGKGLEWVSGIGWSGGSIVYADSVKGRFTISRDNAKNSLYLQMNSLRAEDTALYYCAKDSPYGDFFDYWGQGTLVTVSS
VL: DIVMTQSPDSLAVSLGERATINCKSSQTVFYSSNNKNYLAWYQQKPGQPPKLLISWASTRKSGVPDRFSGSGSGTDFTLTVSSLQAEDVAVYYCQHYYSTPYTFGQGTKLEIKR
notes: intact human IgG1; variable regions from US20190382481A1; also called C33B3904; C331B904

OD450 (Biotin-C33B904 signal) (human CD33-his protein [7]): 0.66
OD450 (Biotin-C33B904 signal) (human CD33-his protein [8]): 2.26
OD450 (Biotin-C33B904 signal) (human CD33-his protein [9]): 1.77
B2: C33B904 (antibody, human IgG1, kappa, V domains shown)
VH: EVQLVESGGGLVQPGRSLRLSCAASGFTFDDYAMHWVRQAPGKGLEWVSGIGWSGGSIVYADSVKGRFTISRDNAKNSLYLQMNSLRAEDTALYYCAKDSPYGDFFDYWGQGTLVTVSS
VL: DIVMTQSPDSLAVSLGERATINCKSSQTVFYSSNNKNYLAWYQQKPGQPPKLLISWASTRKSGVPDRFSGSGSGTDFTLTVSSLQAEDVAVYYCQHYYSTPYTFGQGTKLEIKR
notes: control antibody, intact human IgG1 form; variable regions from US20190382481A1; also called C33B904 hIgG1; C331B904

Reference: patent publication US20240124575A1 (SIMCERE ZAIMING PHARMACEUTICAL, published 2024)
